Experiment [1] concerns the target T1, H46R/H48Q/C146S Sod1 labeled with Alexa-546 at C57 (yeast).
T1 sequence (P00445 2-154 with H46R H48Q C146S, looked up): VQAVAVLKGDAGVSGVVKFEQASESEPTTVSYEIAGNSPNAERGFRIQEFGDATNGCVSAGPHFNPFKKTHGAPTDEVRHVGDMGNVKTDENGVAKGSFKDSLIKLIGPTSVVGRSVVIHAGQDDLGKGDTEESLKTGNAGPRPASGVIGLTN
Put plainly: other fluorescence titration; microplate, quenching of Alexa-546-labeled Sod1 on titration with Ccs1; Sod1 zinc bound and disulfide reduced (E, Zn-Sod1^SH); 20 mM Tris pH 7.5, 150 mM NaCl, 1 mM TCEP, 0.01% octyl glucoside and CHAPS.

Experiment [2] has the same target. The experiment is described as above. This is another data set of the same source.
For experiment [3] the target is unchanged. Kind of experiment: other fluorescence titration; microplate, quenching of Alexa-546-labeled Sod1 on titration with Ccs1; Sod1 metal deficient and disulfide reduced (E, E-Sod1^SH); 20 mM Tris pH 7.5, 150 mM NaCl, 1 mM TCEP, 0.01% octyl glucoside and CHAPS.
For experiment [4] the target is unchanged. The description is as above. The source holds these as a separate data set.

The Kd is the free concentration of one partner at which half of the binding sites on the other are occupied at equilibrium, for simple one-to-one binding. A high value points to weaker binding.

B1: copper chaperone for Sod1 (Ccs1), full-length wild type (natural protein)
chain: GHMTTNDTYEATYAIPMHCENCVNDIKACLKNVPGINSLNFDIEQQIMSVESSVAPSTIINTLRNCGKDAIIRGAGKPNSSAVAILETFQKYTIDQKKDTAVRGLARIVQVGENKTLFDITVNGVPEAGNYHASIHEKGDVSKGVESTGKVWHKFDEPIECFNESDLGKNLYSGKTFLSAPLPTWQLIGRSFVISKSLNHPENEPSSVKDYSFLGVIARSAGVWENNKQVCACTGKTVWEERKDALANNIK
For B1, the equilibrium dissociation constant (Kd) in experiment [1] is 114 nM; in experiment [2] it was 134 nM; in experiment [3] it was 36 nM; in experiment [4], 34 nM.
